Data on two molecules can be found in patent US20170291948A1.

In assay [1] the target is human NRP1 protein (human) (UniProt O14786). Description: SPR, Biacore T100. A general note: Surface plasmon resonance follows binding to a sensor surface in real time, without labels.
For assay [2], the target named is NRP1 expressed on the surface of cancer cells (NRP1-overexpressing patient-derived cells; U87MG glioblastoma cell line) (human) (UniProt O14786). The assay is described as follows: cell-based or functional assay.
Chain of NRP1 expressed on the surface of cancer cells (NRP1-overexpressing patient-derived cells; U87MG glioblastoma cell line) (human) (O14786 22-923): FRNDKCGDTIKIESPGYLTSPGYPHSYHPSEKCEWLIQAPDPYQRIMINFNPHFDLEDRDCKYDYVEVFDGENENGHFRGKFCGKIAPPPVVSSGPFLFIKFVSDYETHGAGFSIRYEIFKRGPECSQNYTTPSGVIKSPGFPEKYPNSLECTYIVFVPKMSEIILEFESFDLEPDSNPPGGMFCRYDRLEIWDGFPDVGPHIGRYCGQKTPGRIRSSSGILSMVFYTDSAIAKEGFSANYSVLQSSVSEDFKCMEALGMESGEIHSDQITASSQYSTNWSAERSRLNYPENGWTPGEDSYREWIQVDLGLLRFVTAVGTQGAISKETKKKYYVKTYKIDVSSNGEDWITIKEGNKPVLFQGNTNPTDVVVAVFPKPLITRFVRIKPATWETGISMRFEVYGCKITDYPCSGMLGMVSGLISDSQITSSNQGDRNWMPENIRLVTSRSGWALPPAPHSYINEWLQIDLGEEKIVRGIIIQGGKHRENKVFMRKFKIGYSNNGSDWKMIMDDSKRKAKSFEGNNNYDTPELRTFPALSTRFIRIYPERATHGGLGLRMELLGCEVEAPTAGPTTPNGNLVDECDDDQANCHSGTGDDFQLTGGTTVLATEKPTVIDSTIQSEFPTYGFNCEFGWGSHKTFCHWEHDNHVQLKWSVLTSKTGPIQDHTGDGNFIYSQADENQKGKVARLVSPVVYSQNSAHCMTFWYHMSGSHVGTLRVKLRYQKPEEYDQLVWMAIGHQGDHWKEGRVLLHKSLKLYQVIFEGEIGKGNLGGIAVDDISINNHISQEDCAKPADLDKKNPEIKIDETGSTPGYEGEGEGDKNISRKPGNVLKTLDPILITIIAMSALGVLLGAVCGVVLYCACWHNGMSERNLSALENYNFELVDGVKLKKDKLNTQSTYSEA

Chain of human NRP1 protein (human) (O14786 other isoform, or with tags, fused parts or gaps limits assumed): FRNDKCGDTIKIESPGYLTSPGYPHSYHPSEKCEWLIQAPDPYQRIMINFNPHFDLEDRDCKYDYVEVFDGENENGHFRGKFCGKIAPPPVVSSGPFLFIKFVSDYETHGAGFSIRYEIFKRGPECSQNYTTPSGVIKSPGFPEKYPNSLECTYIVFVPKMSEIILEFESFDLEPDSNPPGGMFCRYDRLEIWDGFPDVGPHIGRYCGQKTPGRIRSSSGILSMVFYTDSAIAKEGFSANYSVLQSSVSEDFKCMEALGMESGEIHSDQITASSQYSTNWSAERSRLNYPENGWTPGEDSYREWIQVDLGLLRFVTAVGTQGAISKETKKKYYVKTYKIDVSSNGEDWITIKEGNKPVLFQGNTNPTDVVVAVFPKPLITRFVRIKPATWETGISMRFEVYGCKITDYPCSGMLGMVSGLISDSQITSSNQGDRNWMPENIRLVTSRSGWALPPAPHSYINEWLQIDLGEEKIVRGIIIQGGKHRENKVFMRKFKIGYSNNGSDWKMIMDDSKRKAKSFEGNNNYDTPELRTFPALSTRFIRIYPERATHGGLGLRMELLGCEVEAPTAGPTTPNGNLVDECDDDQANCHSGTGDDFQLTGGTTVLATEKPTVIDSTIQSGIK

B1: 1A03 scFv antibody fragment (scFv, part only; not given: linker, domain order, His and HA tags, V domains shown, not shown: another chain or arm of the molecule; large carriers; small tags and cut ends)
VH: EVQLLESGGGLVQPGGSLRLSCAASGFTFSSYYMSWVRQAPGKGLEWVSAISPGSSNKYYADSVQGRFTISRDNSKNTLYLQMNSLRAEDTAVYYCARRKKSFDYWGQGTLVTVSS
VL: QSVLTQPPSASGTPGQRVTISCSGPSSNIGNNDVSWYQQLPGTAPKLLIYSDNNRPSGVPDRFSGSKSGTSASLAISGLRSEDEADYYCGAWVASLSAYVFGGGTKLTVL
Broadly, the Kd is the concentration at which binding is half-saturated. A lower Kd goes with a tighter complex. Molecule B1 showed a Kd in assay [1] of 89.4 nM. Further, in assay [2], the cell migration of U87MG cells (transwell), untreated control = 100% is 41%.

B2: 3H10 scFv antibody fragment (scFv, part only; not given: linker, domain order, His and HA tags, V domains shown, not shown: another chain or arm of the molecule; large carriers; small tags and cut ends)
VH: EVQLLESGGGLVQPGGSLRLSCAASGFTFSSYYMSWVRQAPGKGLEWVSAISPGSSNKYYADSVKGRFTISRDNSKNTLYLQMNSLRAEDTAVYYCARRKYMFDYWGQGTLVTVSS
VL: QSVLTQPPSASGTPGQRVTISCTGSSSNIGNNDVYWYQQLPGTAPKLLIYSDSNRPSGVPDRFSGSKSGTSASLAISGLRSEDEADYYCASWDSSLSGYVFGGGTKLTVL
In the case of B2, the Kd in assay [1] came to 295 nM. This molecule had a cell migration of U87MG cells (transwell), untreated control = 100% in assay [2] of 46%.
